5 molecules from paper PMC5241800, “A RuBisCO-mediated carbon metabolic pathway in methanogenic archaea” (Nature Communications, 2017) can be followed below.

The target of data set [1] is Methanospirillum hungatei phosphoribulokinase (MhPRK) (Methanospirillum hungatei). The data set is described as follows: crystal structure; hanging-drop vapour diffusion at 20 °C; 2.5 Å; the asymmetric unit holds two MhPRK protomers (chains A and B) related by approximately two-fold noncrystallographic symmetry.
Data set [2] deals with T1, M. hungatei RuBisCO (Mh-RuBisCO) (Methanospirillum hungatei, UniProt Q2FSY4).
T1 construct: gene rbcL; recombinant in E. coli C43 (DE3), pET-15b, His6 tag cleaved by thrombin
The data set is described as follows: coupled PGK / GAPDH carboxylase assay, NADH at […] nm; turnover only. Type of data set: biochemical. The note with it: 2 mM RuBP, 50 mM NaHCO3, 20 mM MgCl2, pH 8.0, 25 °C, anaerobic.

Substrate in data set [3]: O=C(CO)[C@H](O)[C@H](O)COP(=O)(O)O
The data set is described as follows: purified protein. Conditions: co-substrate ATP (2 mM), 10 mM MgCl2, 100 mM KCl, pH 8.0, 25 °C. The data set is classed as biochemical, Methanospirillum hungatei.

Substrate in data set [4]: Nc1ncnc2c1ncn2[C@@H]1O[C@H](COP(=O)(O)OP(=O)(O)OP(=O)(O)O)[C@@H](O)[C@H]1O
The data set is described as follows: purified protein. Type of data set: biochemical, Methanospirillum hungatei. Conditions: co-substrate Ru5P (2 mM), 10 mM MgCl2, 100 mM KCl, pH 8.0, 25 °C.

Substrate in data set [5]: O=C(CO)[C@H](O)[C@H](O)COP(=O)(O)O
The data set is described as follows: purified protein. The data set is classed as biochemical, Methanothrix thermoacetophila. Conditions: co-substrate ATP (2 mM), 10 mM MgCl2, 100 mM KCl, pH 8.0, 25 °C.

Substrate in data set [6]: Nc1ncnc2c1ncn2[C@@H]1O[C@H](COP(=O)(O)OP(=O)(O)OP(=O)(O)O)[C@@H](O)[C@H]1O
The data set is described as follows: purified protein. The note with it: co-substrate Ru5P (2 mM), 10 mM MgCl2, 100 mM KCl, pH 8.0, 25 °C. The data set is classed as biochemical, Methanothrix thermoacetophila.

Substrate in data set [7]: O=C(CO)[C@H](O)[C@H](O)COP(=O)(O)O
The data set is described as follows: purified protein. The data set is classed as biochemical, Methanothrix soehngenii. Conditions: co-substrate ATP (2 mM), 10 mM MgCl2, 100 mM KCl, pH 8.0, 25 °C.

Substrate in data set [8]: Nc1ncnc2c1ncn2[C@@H]1O[C@H](COP(=O)(O)OP(=O)(O)OP(=O)(O)O)[C@@H](O)[C@H]1O
The data set is described as follows: purified protein. The note with it: co-substrate Ru5P (2 mM), 10 mM MgCl2, 100 mM KCl, pH 8.0, 25 °C. Type of data set: biochemical, Methanothrix soehngenii.

T1 sequence (Q2FSY4 entry or part of it): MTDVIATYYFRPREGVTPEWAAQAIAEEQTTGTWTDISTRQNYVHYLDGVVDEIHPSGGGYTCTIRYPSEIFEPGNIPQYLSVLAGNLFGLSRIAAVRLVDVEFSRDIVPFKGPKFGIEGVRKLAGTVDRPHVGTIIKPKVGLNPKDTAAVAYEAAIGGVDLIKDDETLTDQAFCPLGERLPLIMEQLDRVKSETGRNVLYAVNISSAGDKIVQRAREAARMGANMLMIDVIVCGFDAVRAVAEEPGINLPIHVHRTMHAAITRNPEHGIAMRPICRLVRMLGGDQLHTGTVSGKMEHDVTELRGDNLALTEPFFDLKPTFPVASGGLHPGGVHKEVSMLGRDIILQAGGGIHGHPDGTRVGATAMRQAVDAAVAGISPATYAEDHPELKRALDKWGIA

“Methanospirillum hungatei phosphoribulokinase (MhPRK) (enzyme)”: the stoichiometry N in data set [1] stood at 2.

Turning to `O=C(COP(=O)(O)O)[C@H](O)[C@H](O)COP(=O)(O)O` [RuBP], the “coupled PGK / GAPDH carboxylase assay, NADH at 340 nm; turnover only” value in data set [2] is reported as “M. hungatei RuBisCO was found to have a specific activity for the carboxylase reaction”.

B1: MhPRK (M. hungatei PRK homologue) (Methanospirillum hungatei JF-1) (protein)
chain: MSQPENFREVIRHSPLVYLIGVAGDSGSGKSTFTRAISDIFGEELVSSITVDDYHLYDRKTRSEMGITPLLHTANNLKLLEENLMDLKAGRTIQKPVYLHDHGTFGEPELFSPTKFIIIEGLHPYATKSLRALYDYTIFVDPERDVKYDWKIRRDMKKRNYDKNEVLREILQREPDYFQYVFPQREVADAVIQISYSSYGKEEGEKRNVYRVMLSMPAQEYCFEDIELNIDLCDLFKKSSHDFSLSCISHTPDSRNMRALVVDGELMPDTIHKIERQIEFQTGISPINIFRGQEHITGTDLVRLILSWQIINGRIALSNHLDQ
notes: recombinant in E. coli C43 (DE3), pET-15b, His6 tag cleaved by thrombin; homodimer; residues up to 323
Turning to B1, the results for the Km in the data set “purified protein [3]” and in “purified protein [4]” were 280 ± 50 µM and 20.70 ± 1.70 µM, respectively.

B2: Methanosaeta thermophila PRK homologue (Mtprk) (Methanothrix thermoacetophila PT) (protein)
chain: MRLLEKIRESGRVFVVAVAGDSGSGKTTFTRGIRRLLGEDVVSTFSMDDYHSLDRRQRKTLGITPLRPEANRFDLLAEHLAMLRRGLAIEKPVYDHTTGEIRGPVIFKPSPVIIVEGLHPFYTEELRKLSDFKIFVDPSRAVKRRWKLRRDVGERGYAPEDVMREILEREPDYKLYVDVQKVYAEMVIKIQDSRIPPEWTEIARGSAREKYSVRIIQQILDHPLDEVDLTIDLSRIMRLTEREFSIEFQRDDYYGKRVGVMTLDGEFPLTMIKDLERKLCDFLGRDVPSVTEGCQEDHGSYVNATEMTQLILIWRFLEKIANLAW
notes: recombinant in E. coli C43 (DE3), pET15b, His6 tag, purified as MhPRK (thrombin-cleaved)
As for B2, the figures for the Km in “purified protein [5]” and in the data set “purified protein [6]” were 230 ± 50 µM and 5.66 ± 0.21 µM, respectively.

B3: Methanosaeta concilii PRK homologue (Mcprk) (Methanothrix soehngenii GP6) (protein)
chain: MRSLKDRIRESGRVFVFGIAGDSGSGKTTISRGIRRILGEDMVATFSMDDYHSLDRRQRKERNITPLHPDANQFDLLAEHLEALRRNERIDKPVYDHRTGEISGTVPFGPAPVIIVEGLHPLYTERLRSQIDFKIFVDPSRSVKRLWKIRRDVGERGYETGQVMAEILQREPDYKLYVDIQKIYAQIVIKIQDSRFHPSLLDSQSTLDWYSVRLIMEIMEHPVSEVSMNIDLSKILRRSEHEFSIEFQRDDYYGKRVGIMTMDGEIHQSMISDLEKKLGESLGTDGMISDRREEYVNAIGLAQLILTWNCVEKLDYLLQEEGY
notes: as for B2
As to B3, the Km in the data set “purified protein [7]” was found to be 310 ± 80 µM; in “purified protein [8]”, 17.91 ± 2.02 µM.
